Measured values reported in patent US20140087995A1 (published 2014).
Numbered stars: 1 amine (or outer) side, 2 acyl side, 3 side chain; on linkers, the order of the positions; unused ones are H or OH. Bridge positions count the residues as written; N and C are the ends. Side chains are listed from the residue outwards. Ends that are not written are not given here. * marks the point of attachment. C20 diacid = O=C(O)CCCCCCCCCCCCCCCCCCC(=O)*; γGlu = O=C(O)[C@H](CCC(=O)[*:2])N[*:1]; AEEA = NCCOCCOCC(=O)O

T1: rat calcitonin receptor (rat, UniProt P32214 25-516)
T1 construct: whole, on cells; Used as membranes prepared from BHK tk'ts 13 cells transiently transfected with the rat calcitonin receptor (Assay VIII); also called rCTR; rat calcitonin (a) receptor
T1 sequence (looked up): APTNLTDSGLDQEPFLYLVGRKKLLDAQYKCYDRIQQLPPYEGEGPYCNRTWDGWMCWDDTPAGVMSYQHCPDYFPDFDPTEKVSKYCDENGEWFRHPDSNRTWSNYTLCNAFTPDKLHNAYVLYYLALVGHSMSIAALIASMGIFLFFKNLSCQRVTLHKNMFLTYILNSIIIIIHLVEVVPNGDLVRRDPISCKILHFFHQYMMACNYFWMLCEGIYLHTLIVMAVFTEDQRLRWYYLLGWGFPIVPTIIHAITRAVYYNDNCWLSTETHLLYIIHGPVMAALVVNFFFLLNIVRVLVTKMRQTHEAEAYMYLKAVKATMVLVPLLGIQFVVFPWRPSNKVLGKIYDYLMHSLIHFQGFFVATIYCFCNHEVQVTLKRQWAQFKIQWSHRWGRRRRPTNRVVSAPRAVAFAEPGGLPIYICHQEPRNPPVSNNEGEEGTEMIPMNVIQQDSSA

T2: human calcitonin receptor (human, UniProt P30988 25-474)
T2 construct: whole, on cells; Used as membranes prepared from a BHK tk'ts 13 cell line stably transfected with the human calcitonin receptor (Assay VII); also called hCTR; hCT
T2 sequence (looked up): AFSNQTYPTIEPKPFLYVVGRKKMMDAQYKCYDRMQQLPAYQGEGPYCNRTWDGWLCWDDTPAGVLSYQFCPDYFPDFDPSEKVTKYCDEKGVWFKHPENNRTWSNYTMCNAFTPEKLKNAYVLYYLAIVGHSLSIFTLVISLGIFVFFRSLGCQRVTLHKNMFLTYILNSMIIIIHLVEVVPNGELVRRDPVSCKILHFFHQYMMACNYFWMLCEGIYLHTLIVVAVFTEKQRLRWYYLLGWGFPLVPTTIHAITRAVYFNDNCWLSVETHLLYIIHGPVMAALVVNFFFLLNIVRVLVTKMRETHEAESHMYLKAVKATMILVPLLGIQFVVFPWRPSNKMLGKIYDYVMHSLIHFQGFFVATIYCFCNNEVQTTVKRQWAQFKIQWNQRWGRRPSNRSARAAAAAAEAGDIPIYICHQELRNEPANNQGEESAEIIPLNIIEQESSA

T3: rat amylin receptor (rat calcitonin receptor + rat RAMP 3) (rat, UniProt P32214 25-516; Q9JJ73 23-147)
T3 construct: whole, on cells; Used as membranes prepared from BHK tk'ts 13 cells transiently transfected with rat calcitonin receptor and rat RAMP 3 (Assay VI); also called rAmylin-R; rat amylin 3(a) receptor
T3 sequence (looked up) 1: T1 sequence (looked up)
T3 sequence (looked up) 2: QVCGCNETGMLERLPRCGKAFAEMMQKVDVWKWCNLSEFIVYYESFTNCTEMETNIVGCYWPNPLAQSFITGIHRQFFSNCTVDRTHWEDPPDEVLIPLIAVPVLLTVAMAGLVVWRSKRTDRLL

B1: N^ε1-[2-[2-[2-[[(4S)-4-carboxy-4-(19-carboxynonadecanoylamino)butanoyl]amino]ethoxy]ethoxy]acetyl]-[Arg14,Arg17,Pro21,Pro27]-h-amylin (peptide)
peptide: K([AEEA-γGlu-C20 diacid])CNTATCATQRLARFLRHSSPNFGAIPSSTNVGSNTY-NH2
modifications: disulfide 2-7; N-terminus assumed
SMILES: CC[C@H](C)[C@H](NC(=O)[C@H](C)NC(=O)CNC(=O)[C@H](Cc1ccccc1)NC(=O)[C@H](CC(N)=O)NC(=O)[C@@H]1CCCN1C(=O)[C@H](CO)NC(=O)[C@H](CO)NC(=O)[C@H](Cc1c[nH]cn1)NC(=O)[C@H](CCCNC(=N)N)NC(=O)[C@H](CC(C)C)NC(=O)[C@H](Cc1ccccc1)NC(=O)[C@H](CCCNC(=N)N)NC(=O)[C@H](C)NC(=O)[C@H](CC(C)C)NC(=O)[C@H](CCCNC(=N)N)NC(=O)[C@H](CCC(N)=O)NC(=O)[C@@H](NC(=O)[C@H](C)NC(=O)[C@@H]1CSSC[C@H](NC(=O)[C@@H](N)CCCCNC(=O)COCCOCCNC(=O)CC[C@H](NC(=O)CCCCCCCCCCCCCCCCCCC(=O)O)C(=O)O)C(=O)N[C@@H](CC(N)=O)C(=O)N[C@@H]([C@@H](C)O)C(=O)N[C@@H](C)C(=O)N[C@@H]([C@@H](C)O)C(=O)N1)[C@@H](C)O)C(=O)N1CCC[C@H]1C(=O)N[C@@H](CO)C(=O)N[C@@H](CO)C(=O)N[C@H](C(=O)N[C@@H](CC(N)=O)C(=O)N[C@H](C(=O)NCC(=O)N[C@@H](CO)C(=O)N[C@@H](CC(N)=O)C(=O)N[C@H](C(=O)N[C@@H](Cc1ccc(O)cc1)C(N)=O)[C@@H](C)O)C(C)C)[C@@H](C)O
notes: Analogue of human amylin; also called compound 82
B2: N^ε1-[2-[2-[2-[[(4S)-4-carboxy-4-(19-carboxynonadecanoylamino)butanoyl]amino]ethoxy]ethoxy]acetyl]-[Arg17,Pro21,Pro27,Arg34]-h-amylin (peptide)
peptide: K([AEEA-γGlu-C20 diacid])CNTATCATQRLANFLRHSSPNFGAIPSSTNVGRNTY-NH2
modifications: disulfide 2-7; N-terminus assumed
SMILES: CC[C@H](C)[C@H](NC(=O)[C@H](C)NC(=O)CNC(=O)[C@H](Cc1ccccc1)NC(=O)[C@H](CC(N)=O)NC(=O)[C@@H]1CCCN1C(=O)[C@H](CO)NC(=O)[C@H](CO)NC(=O)[C@H](Cc1c[nH]cn1)NC(=O)[C@H](CCCNC(=N)N)NC(=O)[C@H](CC(C)C)NC(=O)[C@H](Cc1ccccc1)NC(=O)[C@H](CC(N)=O)NC(=O)[C@H](C)NC(=O)[C@H](CC(C)C)NC(=O)[C@H](CCCNC(=N)N)NC(=O)[C@H](CCC(N)=O)NC(=O)[C@@H](NC(=O)[C@H](C)NC(=O)[C@@H]1CSSC[C@H](NC(=O)[C@@H](N)CCCCNC(=O)COCCOCCNC(=O)CC[C@H](NC(=O)CCCCCCCCCCCCCCCCCCC(=O)O)C(=O)O)C(=O)N[C@@H](CC(N)=O)C(=O)N[C@@H]([C@@H](C)O)C(=O)N[C@@H](C)C(=O)N[C@@H]([C@@H](C)O)C(=O)N1)[C@@H](C)O)C(=O)N1CCC[C@H]1C(=O)N[C@@H](CO)C(=O)N[C@@H](CO)C(=O)N[C@H](C(=O)N[C@@H](CC(N)=O)C(=O)N[C@H](C(=O)NCC(=O)N[C@@H](CCCNC(=N)N)C(=O)N[C@@H](CC(N)=O)C(=O)N[C@H](C(=O)N[C@@H](Cc1ccc(O)cc1)C(N)=O)[C@@H](C)O)C(C)C)[C@@H](C)O
notes: Analogue of human amylin; also called compound 78

What was measured:
rat calcitonin receptor [1] = molecular target: T1, rat calcitonin receptor; test: SPA competition with 125I-calcitonin, membranes of BHK cells with rat CTR (Assay VIII)
[2] = molecular target: T2, human calcitonin receptor; test: IC50 on human CTR divided by IC50 on human amylin receptor (Assays VII/V)
Protocol: The resulting pellet was resuspended, homogenized and centrifuged (20.000 rpm, 15 min) in a buffer containing 20 mM Na-HEPES and 0.1 mM EDTA (pH 7.4, buffer 2). The resulting pellet was resuspended in buffer 2 and protein concentration was measured (BCA protein Assay, Pierce). The homogenate was kept cold during the whole procedure. The membranes were kept at −80° C. until use. The assay was performed in a 384 well Optiplate (PerkinElmer) in a total volume of 40 ul. Membranes were mixed with SPA beads. Final concentration of membranes 35 ng/μL final and SPA beads was 0.05 mg/well. Test-compounds were dissolved in DMSO and further diluted in assay buffer (50 mM Hepes, pH 7.4, 1 mM CaCl2, 5 mM MgCl₂, 0.1% OA and 0.02% Tween20). […] The final mixture was incubated with shaking at 400 rpm for 120 min at 25° C. prior to centrifugation (1500 rpm, 10 min). Samples were analyzed on TopCounter™ (Packard). The IC₅₀ was calculated using (one site binding competition analysis) GraphPad Prism5 as a measure of receptor affinity.
Membranes were prepared in the following way; the cells were rinsed with PBS and incubated with Versene for approximately 5 min before harvesting. The cells were flushed with PBS and the cell-suspension was centrifuged for 5 min at 1000 rpm. Cells were homogenized (Ultrathurrax) in a buffer containing 20 mM Na-HEPES and 10 mM EDTA (pH 7.4) and centrifuged at 20.000 rpm for 15 min. The resulting pellet was resuspended, homogenized and centrifuged (20.000 rpm, 15 min) in a buffer containing 20 mM Na-HEPES and 0.1 mM EDTA (pH 7.4, buffer 2). The resulting pellet was resuspended in buffer 2 and protein concentration was measured (BCA protein Assay, Pierce). The homogenate was kept cold during the whole procedure. The membranes were kept at −80° C. until use. Assay was performed in a 384 well Optiplate (PerkinElmer) in a total volume of 40 ul. Membranes were mixed with SPA beads.

[3] = molecular target: T3, rat amylin receptor (rat calcitonin …); test: SPA competition with 125I-rat amylin, membranes of BHK cells with rat CTR + rat RAMP3 (Assay VI)
Protocol: The binding assay was performed using scintillation proximity assay (SPA) beads (RPNQ0001) from PerkinElmer and cell membranes from the Amylin 3(a)/CRE-luc cells (as described in Assay (II)) were used. Membranes were prepared in the following way; the cells were rinsed with PBS and incubated with Versene for approximately 5 min before harvesting. The cells were flushed with PBS and the cell-suspension was centrifuged for 5 min at 1000 rpm. Cells were homogenized (ultrathurrax) in a buffer containing 20 mM Na-HEPES and 10 mM EDTA (pH 7.4) and centrifuged at 20.000 rpm for 15 min. The resulting pellet was resuspended, homogenized and centrifuged (20.000 rpm, 15 min) in a buffer containing 20 mM Na-HEPES and 0.1 mM EDTA (pH 7.4, buffer 2). The resulting pellet was resuspended in buffer 2 and protein concentration was measured (BCA protein Assay, Pierce). The homogenate was kept cold during the whole procedure. The membranes were kept at −80° C. until use. The assay was performed in a 384 well Optiplate (PerkinElmer) in a total volume of 40 ul. Membranes were mixed with SPA beads. Final concentration of membranes 35 ng/μL final and SPA beads was 0.05 mg/well. Test-compounds were dissolved in DMSO and further diluted in assay buffer (50 mM Hepes, pH 7.4, 1 mM CaCl2, 5 mM MgCl₂, 0.1% OA and 0.02% Tween20). […] The final mixture was incubated with shaking at 400 rpm for 120 min at 25° C. prior to centrifugation (1500 rpm, 10 min). Samples were analyzed on TopCounter™ (Packard). The IC₅₀ was calculated using (one site binding competition analysis) GraphPad Prism5 as a measure of receptor affinity.
Cells were grown in DMEM with 10% FBS and 1% Pen/Strep. Approximately 48 hours after transfection, the cells were harvested and membranes were prepared.

rat calcitonin receptor [4] = molecular target: T1, rat calcitonin receptor; test: IC50 on rat CTR divided by IC50 on rat amylin receptor (Assays VIII/VI)

Binder	IC50 (rat calcitonin receptor [1])	Ratio hCT/hAmylin binding [2]	IC50 [3]	Ratio rCT/rAmylin binding (rat calcitonin receptor [4])
B1	143 nM	140	1.64 nM	87
B2	90.6 nM	60.7	1.3 nM	69.9
